Earlier results, collected in publication PMC5394478.

Assays:
[1] = biological target: IFNLR1 Box1 (Homo sapiens) (UniProt Q8IU57); assay: Biolayer Interferometry
[2] = biological target: IFNLR1 Box1-Box2 (Homo sapiens) (UniProt Q8IU57); assay: Biolayer Interferometry

Kd [1]: 1200 nM
Kd [2]: 70 nM
Substance: JAK1 FERM-SH2 (from UniProt P23458)
